Reference: patent publication US20240279307A1 (published 2024)
Changes are numbered by the printed parent chain.

T1: HMHA1, wild type (HA-1R; HA-1H-negative, rs1801284 G/G) peptide on HLA-A*02:01 (human)
T1 peptide: VLRDDLLEA

T2: HMHA1 (Rho GTPase-activating protein 45), minor histocompatibility antigen HA-1H, R139H polymorphism peptide … (human)
T2 peptide: VLHDDLLEA

B1: TCR2 (TCR, V domains shown)
Valpha: KQEVTQIPAALSVPEGENLVLNCSFTDSAIYNLQWFRQDPGKGLTSLLLIQSSQREQTSGRLNASLDKSSGRSTLYIAASQPGDSATYLCAVIGLGGTYKYIFGTGTRLKVLA
Vbeta: DTGVSQDPRHKITKRGQNVTFRCDPISEHNRLYWYRQTLGQGPEFLTYFQNEAQLEKSRLLSDRFSAERPKGSFSTLEIQRTEQGDSAMYLCASSLVKGEKLFFGSGTQLSVL
B2: TCR16 (TCR, V domains shown)
Valpha: KQEVTQIPAALSVPEGENLVLNCSFTDSAIYNLQWFRQDPGKGLTSLLLIQSSQREQTSGRLNASLDKSSGRSTLYIAASQPGDSATYLCAVHLLNDYKLSFGAGTTVTVRA
Vbeta: B1 Vbeta with K98V, E100N, K101E, L102Q, S106P, Q109R, S111T
B3: TCR1 (TCR, V domains shown)
Valpha: SQQGEEDPQALSIQEGENATMNCSYKTSINNLQWYRQNSGRGLVHLILIRSNEREKHSGRLRVTLDTSKKSSSLLITASRAADTASYFCATKRDSGAGSYQLTFGKGTKLSVIP
Vbeta: DTGVSQDPRHKITKRGQNVTFRCDPISEHNRLYWYRQTLGQGPEFLTYFQNEAQLEKSRLLSDRFSAERPKGSFSTLEIQRTEQGDSAMYLCASSSTGGHNEQFFGPGTRLTVL
B4: TCR5 (TCR, V domains shown)
Valpha: SQQGEEDPQALSIQEGENATMNCSYKTSINNLQWYRQNSGRGLVHLILIRSNEREKHSGRLRVTLDTSKKSSSLLITASRAADTASYFCATNSGNTPLVFGKGTRLSVIA
Vbeta: DTGVSQDPRHKITKRGQNVTFRCDPISEHNRLYWYRQTLGQGPEFLTYFQNEAQLEKSRLLSDRFSAERPKGSFSTLEIQRTEQGDSAMYLCASSLTTLDEQYVGPGTRLTVT
B5: TCR10 (TCR, V domains shown)
Valpha: KNQVEQSPQSLIILEGKNCTLQCNYTVSPFSNLRWYKQDTGRGPVSLTIMTFSENTKSNGRYTATLDADTKQSSLHITASQLSDSASYICVVDSGGGADGLTFGKGTHLIIQP
Vbeta: B4 Vbeta with L96M, T97L, L99N, D100Y, V104F

Target: T1, HMHA1, wild type (HA-1R; …)
Assay: killing

| Binder | binding result |
| --- | --- |
| B1 | no recognition |
| B2 | no recognition |
| B3 | no recognition |
| B4 | no recognition |
| B5 | no recognition |

Target: T2, HMHA1 (Rho GTPase-activating protein …)
Assay: multimer staining

| binding result | Binder |
| --- | --- |
| recognises | B1 |
| recognises | B2 |
| recognises | B3 |
| recognises | B4 |
| recognises | B5 |
